From patent US20190248863A1 come the findings set out here.

Targets include human RXFP3 (human) (UniProt Q9NSD7); human RXFP4 (human) (UniProt Q8TDU9); human RXFP2 (human) (UniProt Q8WXD0).
Holding throughout (assay): cell-based or functional assay

Sequence of human RXFP4 (human) (Q8TDU9 whole entry): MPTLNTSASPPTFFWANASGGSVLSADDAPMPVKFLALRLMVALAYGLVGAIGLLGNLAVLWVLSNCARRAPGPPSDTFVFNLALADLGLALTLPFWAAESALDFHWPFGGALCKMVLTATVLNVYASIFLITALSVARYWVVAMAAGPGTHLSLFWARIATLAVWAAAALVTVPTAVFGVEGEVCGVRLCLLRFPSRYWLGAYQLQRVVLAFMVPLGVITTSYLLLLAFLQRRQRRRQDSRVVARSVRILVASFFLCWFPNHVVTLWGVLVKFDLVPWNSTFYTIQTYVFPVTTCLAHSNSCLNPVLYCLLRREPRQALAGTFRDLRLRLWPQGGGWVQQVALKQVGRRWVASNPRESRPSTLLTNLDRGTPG
Sequence of human RXFP3 (human) (Q9NSD7 whole entry): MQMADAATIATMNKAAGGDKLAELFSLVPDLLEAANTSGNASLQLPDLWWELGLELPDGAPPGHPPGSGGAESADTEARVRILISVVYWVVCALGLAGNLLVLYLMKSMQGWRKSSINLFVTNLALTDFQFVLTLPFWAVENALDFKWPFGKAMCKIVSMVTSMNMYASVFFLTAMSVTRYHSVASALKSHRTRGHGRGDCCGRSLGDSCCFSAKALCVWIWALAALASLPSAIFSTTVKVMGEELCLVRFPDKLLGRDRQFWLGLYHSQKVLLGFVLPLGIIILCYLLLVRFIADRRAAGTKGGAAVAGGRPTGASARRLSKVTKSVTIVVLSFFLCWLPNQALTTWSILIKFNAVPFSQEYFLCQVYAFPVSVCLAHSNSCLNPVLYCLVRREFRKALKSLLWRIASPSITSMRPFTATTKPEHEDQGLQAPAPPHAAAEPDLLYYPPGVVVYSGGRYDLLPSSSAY
Sequence of human RXFP2 (human) (Q8WXD0 whole entry): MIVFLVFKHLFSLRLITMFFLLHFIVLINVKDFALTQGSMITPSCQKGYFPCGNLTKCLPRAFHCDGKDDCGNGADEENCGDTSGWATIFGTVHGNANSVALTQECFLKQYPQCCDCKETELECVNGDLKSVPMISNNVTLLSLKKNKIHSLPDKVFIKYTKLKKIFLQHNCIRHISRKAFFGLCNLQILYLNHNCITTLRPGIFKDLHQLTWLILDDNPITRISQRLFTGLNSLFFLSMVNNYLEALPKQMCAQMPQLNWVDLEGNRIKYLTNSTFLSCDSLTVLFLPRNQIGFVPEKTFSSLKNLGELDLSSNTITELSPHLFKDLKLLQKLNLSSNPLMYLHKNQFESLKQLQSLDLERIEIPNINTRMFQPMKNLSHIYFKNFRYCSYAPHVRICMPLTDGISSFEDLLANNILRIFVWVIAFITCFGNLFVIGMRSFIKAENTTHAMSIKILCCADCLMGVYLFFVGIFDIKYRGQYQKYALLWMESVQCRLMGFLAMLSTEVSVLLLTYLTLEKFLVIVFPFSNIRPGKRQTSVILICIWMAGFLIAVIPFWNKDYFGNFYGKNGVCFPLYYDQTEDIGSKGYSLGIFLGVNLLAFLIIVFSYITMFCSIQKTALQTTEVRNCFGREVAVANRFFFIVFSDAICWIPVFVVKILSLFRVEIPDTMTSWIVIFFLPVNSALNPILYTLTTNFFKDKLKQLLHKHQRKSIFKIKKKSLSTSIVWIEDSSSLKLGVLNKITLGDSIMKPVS

For the substance “recombinant human relaxin 3 (from UniProt Q8WXF3 119-142; Q8WXF3 26-52) (ligand)”, the cAMP Assay EC50 (nM), inhibition of forskolin-induced cAMP, human RXFP3/CHO-K1 cells in the experiment with human RXFP3 (human) came to 0.6 nM. For the same substance, in the experiment with human RXFP4 (human), the cAMP Assay EC50 (nM), inhibition of forskolin-induced cAMP, human RXFP4/CHO-K1 cells was 2.8 nM and the maximal inhibition of forskolin-induced cAMP (partial agonist activity), human RXFP4/CHO-K1 cells is 40%.
For the substance “insulin like 3 protein-INSL3 (from UniProt P51460 106-131; P51460 21-55) (ligand)”, the cAMP Assay EC50 (nM), human RXFP2/CHO-K1 cells with human RXFP2 (human) was 0.46 nM.
